Data on 1 substance can be found in publication PMC7173111.

This assay deals with HBc-YFP fusion protein (Hepatitis B virus) (UniProt P03146). The assay is described as follows: FRET or BRET. Background: Bioluminescence resonance energy transfer reports proximity on the nanometre scale.
UniProt P03146, sequence (P03146 whole entry, the tested form may be a part): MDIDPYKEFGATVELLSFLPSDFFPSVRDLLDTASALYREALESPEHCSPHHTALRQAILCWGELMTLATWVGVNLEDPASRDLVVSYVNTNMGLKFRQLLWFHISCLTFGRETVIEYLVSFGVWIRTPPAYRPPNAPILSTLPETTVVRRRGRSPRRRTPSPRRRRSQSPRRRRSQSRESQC

Consider “A3G-CFP fusion protein (from UniProt Q9HC16 1-384) (natural protein)”, for which the FRET efficiency (E EFF, %) worked out at 18.5% and the FRET ratio (FR) is 1.68.
